Source: paper PMC3320615, “β-Microseminoprotein Endows Post Coital Seminal Plasma with Potent Candidacidal Activity by a Calcium- and pH-Dependent Mechanism” (PLoS Pathogens, 2012)

Experiments:
[1] = test system: C. albicans; assay: Scanning electron microscopy of C. albicans; type: cell-based, Candida albicans; details: 5 h; 20 µM MSP with 40 µM EDTA, or EDTA alone
Method: Specimens were washed with cacodylate buffer, and dehydrated with an ascending ethanol series from 50% (v/v) to absolute ethanol. The specimens were then subjected to critical-point drying in carbon dioxide, with absolute ethanol as intermediate solvent, mounted on aluminum holders, sputtered with 30 nm palladium/gold and examined in a JEOL JSM-350 scanning electron microscope. A small volume from each of the samples was also plated to check antifungal activity.

[2] = target: the molecule itself; assay: SEC; HiPrep 16/60 Sephacryl S 100 column; 50 mM Tris, 150 mM NaCl, pH 7.5, with 1 mM calcium or 1 mM EDTA; native MSP
[3] = test system: Candida albicans ATCC 90028; assay: CFU assay with C. albicans; type: cell-based; details: for Estimate (difference between means of log values): control - treatment, pH 4
How it was run: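 About 4×10^3–10^4 CFU of C. albicans (ATCC 90028 unless stated) exposed to test substance in 10 mM Tris, 5 mM glucose at pH 7.4 or pH 4 for 4 h at 37 °C. Survivors counted as colonies after 2 days at 30 °C; log counts compared with control.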

[4] = Size exclusion chromatography (dimerization); type: physicochemical; details: pH 7.5; 50 mM Tris, 150 mM NaCl; 1 mM calcium or 1 mM EDTA; HiPrep 16/60 Sephacryl S 100
Description: Supplementary file ppat.1002625.s004.tif: Figure S3 Seize exclusion chromatography of MSP. […] (TIF) Click here for additional data file.

[5] = test system: E. faecalis (strain 2374); assay: Antibacterial CFU assay; type: cell-based; details: purified MSP 10 µM + 20 µM EDTA or recombinant dialyzed MSP 10 µM + 10 µM EDTA; low and neutral pH; data not shown
Method: (§1) E. coli (strain 37.4), S. aureus (strain 5120), S. pyogenes (M5 Manfredo), S. agalactiae (SB1), and E. faecalis (strain 2374) were grown in THY medium (Todd Hewitt with addition of yeast) and on THY agar plates at 37°C with 5% (v/v) CO2. Candida albicans was grown over night, washed, and resuspended in 10 mM Tris, 5 mM glucose, pH 7.4 or pH 4. Approximately 4×10^3 to 10^4 CFU of C. albicans were incubated with the test substance in low or neutral pH buffer for 4 h at 37°C. After incubation, the suspension was diluted and plated. Colonies were counted after two days incubation of the plates at 30°C. Bacteria from overnight cultures were inoculated in fresh medium and grown for 3 h, washed in 10 mM Tris, 5 mM glucose pH 7.4. Approximately 8×10^4 CFU were incubated with sample in 10 mM Tris, 5 mM glucose pH 7.4 or pH 4 for 1 h at 37°C, diluted, plated and incubated over night at 37°C and the colonies counted.

[6] = test system: E. coli (strain 37.4); assay: Antibacterial CFU assay; type: cell-based; details: purified MSP 10 µM + 20 µM EDTA or recombinant dialyzed MSP 10 µM + 10 µM EDTA; low and neutral pH; data not shown
Method: as §1

[7] = test system: S. aureus (strain 5120); assay: Antibacterial CFU assay; type: cell-based; details: purified MSP 10 µM + 20 µM EDTA or recombinant dialyzed MSP 10 µM + 10 µM EDTA; neutral pH; data not shown
Method: as §1

[8] = test system: S. pyogenes (M5 Manfredo); assay: Antibacterial CFU assay; type: cell-based; details: purified MSP 10 µM + 20 µM EDTA or recombinant dialyzed MSP 10 µM + 10 µM EDTA; neutral pH; data not shown
Method: as §1

[9] = test system: S. agalactiae (SB1); assay: Antibacterial CFU assay; type: cell-based; details: purified MSP 10 µM + 20 µM EDTA or recombinant dialyzed MSP 10 µM + 10 µM EDTA; neutral pH; data not shown
Method: as §1

B1: β-microseminoprotein (natural protein, human, UniProt P08118 21-114, looked up)
chain: SCYFIPNEGVPGDSTRKCMDLKGNKHPINSEWQTDNCETCTCYETEISCCTLVSTPVGYDKDNCQRIFKKEDCKYIVVEKKDPKKTCSVSEWII
notes: human β-microseminoprotein (MSP, PSP94), native protein purified from seminal plasma; also called MSP; PSP94
- Effect on C. albicans by scanning electron microscopy [1]: aggregated with disrupted membranes causing cell content leakage
- stoichiometry N [2]: 2
- Estimate (difference between means of log values) ([3]; 25 µM MSP + 25 µM EDTA + 0.5 mM calcium, experiment 1): -0.9947
- Estimate (difference between means of log values) ([3]; 25 µM MSP + 25 µM EDTA + 0.5 mM calcium, experiment 2): -0.9876
- Estimate (difference between means of log values) ([3]; 25 µM MSP + 25 µM EDTA + 0.5 mM calcium, experiment 3): -1.0805
- Estimate (difference between means of log values) ([3]; 25 µM MSP + 25 µM EDTA + 0.5 mM magnesium, experiment 1): 1.9399
- Estimate (difference between means of log values) ([3]; 25 µM MSP + 25 µM EDTA + 0.5 mM magnesium, experiment 2): 2.1624
- Estimate (difference between means of log values) ([3]; 25 µM MSP + 25 µM EDTA + 0.5 mM magnesium, experiment 3): 1.6349
- Estimate (difference between means of log values) ([3]; 25 µM MSP + 25 µM EDTA, experiment 1): 4.1638
- Estimate (difference between means of log values) ([3]; 25 µM MSP + 25 µM EDTA, experiment 2): 4.7089
- Estimate (difference between means of log values) ([3]; 25 µM MSP + 25 µM EDTA, experiment 3): 4.1911
- Estimate (difference between means of log values) ([3]; 25 µM, experiment 1): -0.06377
- Estimate (difference between means of log values) ([3]; 25 µM, experiment 2): -0.4481
- Estimate (difference between means of log values) ([3]; 25 µM, experiment 3): -0.4892
- Fungicidal activity in CFU assay ([3]; native MSP 10 µM + 20 µM EDTA or recombinant dialyzed MSP 10 µM + 10 µM EDTA): prominent fungicidal activity
- Candidacidal activity in CFU assay ([3]; neutral and acidic pH, without EDTA): no candidacidal activity
- Oligomeric state on size exclusion chromatography [4]: eluted as a dimer
- Antibacterial activity in CFU assay [5]: no antibacterial activity
- Antibacterial activity in CFU assay [6]: no antibacterial activity
- Antibacterial activity in CFU assay [7]: no antibacterial activity
- Antibacterial activity in CFU assay [8]: no antibacterial activity
- Antibacterial activity in CFU assay [9]: no antibacterial activity
